In US7465582B1, “Nurr-1 induction of a dopaminergic neuronal fate in a neural stem cell or neural progenitor cell in vitro” (Neuro Therapeutics AB, priority 2000, dated 2008):

How the values were obtained:
[1] = tested on: Nurr1 over-expressing C17.2 clones; experiment: Treatment of Nurr1 clones with trophic factors, mitogens, cytokines and other agents; TH immunoreactivity; type: cell-based, mouse; conditions: Nurr1 clones without co-culture; factors alone or combined
Excerpt: C17.2 cells were cotransfected with a CMX-Nurr1 expression vector (Perlmann, T. et al. Genes Dev. 9, 769-782 (1995)) and PGK-puromycin resistance plasmids (Nurr1 clones) or a PGK-puromycin alone (mock clones). For reporter assays, C17.2 parental cells were transfected with the Nurr1 expression vector, the reporter plasmid (NGFIB-binding response element (NBRE) triplet upstream of TK minimal promoter fused to firefly luciferase) and a pRSV-alkaline phosphatase plasmid at a 2:1:2 ratio.
C17.2 neural stem cells (Snyder, E. Y. et al. Cell 68, 33-51 (1992)) were maintained and passaged as previously described (Snyder, E. Y. et al. Cell 68, 33-51 (1992)). Ventral mesencephala from E16 rat embryos were dissected, mechanically dissociated and plated at a final density of 1×10^5 cells/cm^2 on poly-D-lysine coated culture wells in a defined, serum-free medium (N^2, consisting of a 1:1 mixture of F12 and DMEM containing insulin (10 ng/ml), transferrin (100 μg/ml), putrescine (100 μM), progesterone (20 nM), selenium (30 nM) glucose (6 mg/ml), and bovine serum albumin (1 mg/ml)). After 24 hours in vitro, co-cultures were initiated by directly plating 2.5−5×10^4 C17.2-derived cells into the primary cultures; all ages of cultures given use this point as 0 DIV. […] Purified Type 1 astrocytes were obtained from mixed glial cultures derived from various regions of P1 rats according to a standard protocol (McCarthy, K. D. et al. J. Cell Biol. 85, 890-902 (1980)). After replating into 6- or 12-well plates, astrocytes were grown to confluency in serum-containing media and changed to N2 medium. After 3-5 DIV, co-cultures were initiated in fresh N2 as described above. All factors were added once, at the initiation of co-culture (concentrations are noted in the Results and Discussion), with the exception of 5-bromodeoxyuridine (BrdU), which was added 4-6 hours prior to fixation. […]
Fixed cultures were incubated with one of the following antibodies, diluted appropriately in phosphate-buffered saline (PBS) containing 1% bovine serum albumin and 0.3% Triton-X 100: mouse anti-BrdU, 1:50 (DAKO, Denmark), mouse anti-β-tubulin, Type III (TuJ1), 1:250 (Sigma), mouse anti-TH, 1:1000 (Incstar, USA), rabbit anti-β-galactosidase, 1:250 (Cappel, USA) rabbit anti-GFAP, 1:500 (DAKO, Denmark), rabbit anti-AHD-2, 1:4000. […] Quantitative immunocytochemical data represent means and standard errors from 100-500 cells counted in each of 3-6 separate wells from 2-4 experiments. For quantitation of TH expression in co-cultures of primary and C-17.2-derived cells, TH was visualized with the brightfield AEC substrate, while β-gal was assessed using FITC, thus all data expressed as “% TH+” represents the number of TH+/β-gal+divided by total β-gal positive cells.

[2] = tested on: Nurr1-c42-derived dopaminergic neurons; experiment: Response of TH positive c42 cells in co-culture to neurotrophic factors; type: cell-based, mouse; conditions: 9 DIV, after SR11237 and bFGF induction; for neuritogenesis and/or hypertrophy: BDNF 30 ng/ml, CNTF 10 ng/ml, GDNF 10 ng/ml
Experimental: C17.2 neural stem cells (Snyder, E. Y. et al. Cell 68, 33-51 (1992)) were maintained and passaged as previously described (Snyder, E. Y. et al. Cell 68, 33-51 (1992)). Ventral mesencephala from E16 rat embryos were dissected, mechanically dissociated and plated at a final density of 1×10^5 cells/cm^2 on poly-D-lysine coated culture wells in a defined, serum-free medium (N^2, consisting of a 1:1 mixture of F12 and DMEM containing insulin (10 ng/ml), transferrin (100 μg/ml), putrescine (100 μM), progesterone (20 nM), selenium (30 nM) glucose (6 mg/ml), and bovine serum albumin (1 mg/ml)). After 24 hours in vitro, co-cultures were initiated by directly plating 2.5−5×10^4 C17.2-derived cells into the primary cultures; all ages of cultures given use this point as 0 DIV. […] Purified Type 1 astrocytes were obtained from mixed glial cultures derived from various regions of P1 rats according to a standard protocol (McCarthy, K. D. et al. J. Cell Biol. 85, 890-902 (1980)). After replating into 6- or 12-well plates, astrocytes were grown to confluency in serum-containing media and changed to N2 medium. After 3-5 DIV, co-cultures were initiated in fresh N2 as described above. All factors were added once, at the initiation of co-culture (concentrations are noted in the Results and Discussion), with the exception of 5-bromodeoxyuridine (BrdU), which was added 4-6 hours prior to fixation. Cultures were maintained in a humidified 5% CO2, 95% air incubator at 37 C and fixed after given time periods with 4% paraformaldehyde for 45 minutes for immunocytochemical analysis.
Fixed cultures were incubated with one of the following antibodies, diluted appropriately in phosphate-buffered saline (PBS) containing 1% bovine serum albumin and 0.3% Triton-X 100: mouse anti-BrdU, 1:50 (DAKO, Denmark), mouse anti-β-tubulin, Type III (TuJ1), 1:250 (Sigma), mouse anti-TH, 1:1000 (Incstar, USA), rabbit anti-β-galactosidase, 1:250 (Cappel, USA) rabbit anti-GFAP, 1:500 (DAKO, Denmark), rabbit anti-AHD-2, 1:4000. Incubations were either carried out at 4° C. overnight, or at room temperature for 1 hour. Both processes yielded similar results. After washing, cultures were incubated for 1-3 hr with appropriate secondary antibodies (biotinylated horse-anti-mouse IgG or goat-anti-rabbit IgG, Vector, USA), 1:100, in the same dilution buffer. […] Quantitative immunocytochemical data represent means and standard errors from 100-500 cells counted in each of 3-6 separate wells from 2-4 experiments. For quantitation of TH expression in co-cultures of primary and C-17.2-derived cells, TH was visualized with the brightfield AEC substrate, while β-gal was assessed using FITC, thus all data expressed as “% TH+” represents the number of TH+/β-gal+divided by total β-gal positive cells. […]

Row | Molecule | induction of TH expression [1] | neuritogenesis and/or hypertrophy [2] | number of TH+ cells in the culture ([2]; compared to N2 control, NT-3 30 ng/ml)
1 | BDNF: Brain Derived Neurotrophic Factor (protein, UniProt P23560 19-247, looked up) Neurotrophic factor BDNF …: APMKEANIRGQGGLAYPGVRTHGTLESVNGPKAGSRGLTSLADTFEHVIEELLDEDQKVRPNEENNKDADLYTSRVMLSSQVPLEPPLLFLLEEYKNYLDAANMSMRVRRHSDPARRGELSVCDSISEWVTAADKKTAVDMSGGTVTVLEKVPVSKGQLKQYFYETKCNPMGYTKEGCRGIDKRHWNSQCRTTQSYVRALTMDSKKRIGWRFIRIDTSCVCTLTIKRGR | None of these factors induced TH expression in any of the clones | induced neuritogenesis and/or hypertrophy | 
2 | NT-3: neurotrophin-3 (protein, UniProt P20783 139-257, looked up) Neurotrophin-3: YAEHKSHRGEYSVCDSESLWVTDKSSAIDIRGHQVTVLGEIKTGNSPVKQYFYETRCKEARPVKNGCRGIDDKHWNSQCKTSQTYVRALTSENNKLVGWRWIRIDTSCVCALSRKIGRT | None of these factors induced TH expression in any of the clones |  | dramatically increased the number of TH+ cells
3 | GDNF: Glial cell line-Derived Neurotrophic Factor (protein, UniProt P39905 78-211, looked up) Glial cell line-derived …: SPDKQMAVLPRRERNRQAAAANPENSRGKGRRGQRGKNRGCVLTAIHLNVTDLGLGYETKEELIFRYCSGSCDAAETTYDKILKNLSRNRRLVSDKVGQACCRPIAFDDDLSFLDDNLVYHILRKHSAKRCGCI | None of these factors induced TH expression in any of the clones | induced neuritogenesis and/or hypertrophy | 
4 | CNTF: Ciliary Neurotrophic Factor (protein, UniProt P26441 1-200, looked up) Ciliary neurotrophic factor: MAFTEHSPLTPHRRDLCSRSIWLARKIRSDLTALTESYVKHQGLNKNINLDSADGMPVASTDQWSELTEAERLQENLQAYRTFHVLLARLLEDQQVHFTPTEGDFHQAIHTLLLQVAAFAYQIEELMILLEYKIPRNEADGMPINVGDGGLFEKKLWGLKVLQELSQWTVRSIHDLRFISSHQTGIPARGSHYIANNKKM | None of these factors induced TH expression in any of the clones | induced neuritogenesis and/or hypertrophy | 
